Source: patent US20160264649A1

Key:
Assay in all cases: cell-based or functional assay
[1] = biological target: HIV-1 Env of isolate MGRM-D-029 (subtype D) (HIV-1)
[2] = biological target: HIV-1 Env of isolate MGRM-D-003 (subtype D) (HIV-1)
[3] = biological target: HIV-1 Env of isolate MGRM-D-024 (subtype D) (HIV-1)
[4] = biological target: HIV-1 Env of isolate 92UG114 (subtype D) (HIV-1)
[5] = biological target: HIV-1 Env of isolate MGRM-F1-008 (subtype F) (HIV-1)
[6] = biological target: HIV-1 Env of isolate MGRM-D-016 (subtype D) (HIV-1)
[7] = biological target: HIV-1 Env of isolate MGRM-F1-006 (subtype F) (HIV-1)
[8] = biological target: HIV-1 Env of pseudovirus isolate MGRM-G-017 (subtype G) (HIV-1)
[9] = biological target: HIV-1 Env of isolate MGRM-D-026 (subtype D) (HIV-1)
[10] = biological target: HIV-1 Env of isolate MGRM-F1-018 (subtype F) (HIV-1)
[11] = biological target: HIV-1 Env of isolate MGRM-F1-020 (subtype F) (HIV-1)
[12] = biological target: HIV-1 Env of isolate 92UG005 (subtype D) (HIV-1)
[13] = biological target: HIV-1 Env of pseudovirus isolate MGRM-G-025 (subtype G) (HIV-1)
[14] = biological target: HIV-1 Env of pseudovirus isolate MGRM-G-013 (subtype G) (HIV-1)
[15] = biological target: HIV-1 Env of isolate MGRM-D-013 (subtype D) (HIV-1)
[16] = biological target: HIV-1 Env of pseudovirus isolate MGRM-G-019 (subtype G) (HIV-1)
[17] = biological target: HIV-1 Env of isolate MGRM-F1-017 (subtype F) (HIV-1)
[18] = biological target: HIV-1 Env of isolate MGRM-D-018 (subtype D) (HIV-1)
[19] = biological target: HIV-1 Env of pseudovirus isolate MGRM-G-006 (subtype G) (HIV-1)
[20] = biological target: HIV-1 Env of isolate MGRM-F1-016 (subtype F) (HIV-1)
[21] = biological target: HIV-1 Env of isolate MGRM-D-019 (subtype D) (HIV-1)
[22] = biological target: HIV-1 Env of pseudovirus isolate MGRM-G-015 (subtype G) (HIV-1)
[23] = biological target: HIV-1 Env of pseudovirus isolate MGRM-G-011 (subtype G) (HIV-1)
[24] = biological target: HIV-1 Env of isolate MGRM-F1-014 (subtype F) (HIV-1)
[25] = biological target: HIV-1 Env of isolate MGRM-D-028 (subtype D) (HIV-1)
[26] = biological target: HIV-1 Env of isolate 92UG024 (subtype D) (HIV-1)
[27] = biological target: HIV-1 Env of pseudovirus isolate MGRM-G-024 (subtype G) (HIV-1)
[28] = biological target: HIV-1 Env of isolate MGRM-D-011 (subtype D) (HIV-1)
[29] = biological target: HIV-1 Env of isolate MGRM-D-020 (subtype D) (HIV-1)
[30] = biological target: HIV-1 Env of isolate 92UG046 (subtype D) (HIV-1)
[31] = biological target: HIV-1 Env of isolate MGRM-F1-013 (subtype F) (HIV-1)
[32] = biological target: HIV-1 Env of isolate 92UG001 (subtype D) (HIV-1)
[33] = biological target: HIV-1 Env of pseudovirus isolate MGRM-G-027 (subtype G) (HIV-1)
[34] = biological target: HIV-1 Env of isolate MGRM-F1-010 (subtype F) (HIV-1)
[35] = biological target: envelope of aMLV pseudovirus (negative control)
[36] = biological target: HIV-1 Env of isolate MGRM-D-012 (subtype D) (HIV-1)
[37] = biological target: HIV-1 Env of pseudovirus isolate MGRM-G-004 (subtype G) (HIV-1)
[38] = biological target: HIV-1 Env of isolate MGRM-D-021 (subtype D) (HIV-1)
[39] = biological target: HIV-1 Env of isolate MGRM-F1-012 (subtype F) (HIV-1)
[40] = biological target: HIV-1 Env of isolate MGRM-F1-004 (subtype F) (HIV-1)
[41] = biological target: HIV-1 Env of isolate 98CN009 (subtype CRF07_BC) (HIV-1)
[42] = biological target: HIV-1 Env of isolate MGRM-D-008 (subtype D) (HIV-1)
[43] = biological target: HIV-1 Env of isolate MGRM-F1-021 (subtype F) (HIV-1)
[44] = biological target: HIV-1 Env of isolate MGRM-D-002 (subtype D) (HIV-1)
[45] = biological target: HIV-1 Env of isolate MGRM-D-005 (subtype D) (HIV-1)
[46] = biological target: HIV-1 Env of pseudovirus isolate MGRM-G-001 (subtype G) (HIV-1)
[47] = biological target: HIV-1 Env of pseudovirus isolate MGRM-G-028 (subtype G) (HIV-1)
[48] = biological target: HIV-1 Env of isolate MGRM-D-022 (subtype D) (HIV-1)
[49] = biological target: HIV-1 Env of pseudovirus isolate MGRM-G-014 (subtype G) (HIV-1)
[50] = biological target: HIV-1 Env of isolate MGRM-F1-015 (subtype F) (HIV-1)
[51] = biological target: HIV-1 Env of isolate MGRM-D-001 (subtype D) (HIV-1)
[52] = biological target: HIV-1 Env of isolate MGRM-F1-023 (subtype F) (HIV-1)
[53] = biological target: HIV-1 Env of isolate MGRM-D-004 (subtype D) (HIV-1)
[54] = biological target: HIV-1 Env of isolate MGRM-F1-022 (subtype F) (HIV-1)
[55] = biological target: HIV-1 Env of isolate 98CN006 (subtype CRF08_BC) (HIV-1)
[56] = biological target: HIV-1 Env of isolate MGRM-D-014 (subtype D) (HIV-1)
[57] = biological target: HIV-1 Env of pseudovirus isolate MGRM-G-016 (subtype G) (HIV-1)
[58] = biological target: HIV-1 Env of pseudovirus isolate MGRM-G-009 (subtype G) (HIV-1)

B1: PGT-126 (antibody, V domains shown)
VH: QPQLQESGPGLVEASETLSLTCTVSGDSTAACDYFWGWVRQPPGKGLEWIGGLSHCAGYYNTGWTYHNPSLKSRLTISLDTPKNQVFLKLNSVTAADTAIYYCARFDGEVLVYHDWPKPAWVDLWGRGTLVTVSS
VL: QSALTQPPSASGSPGQSISISCTGTSNRFVSWYQQHPGKAPKLVIYGVNKRPSGVPDRFSGSKSGNTASLTVSGLQTDDEAVYYCSSLVGNWDVIFGGGTKLTVL
IC50 (neutralization) [1]: > 50 mg/L | IC50 (neutralization) [2]: 0.021 mg/L | IC50 (neutralization) [3]: 0.376 mg/L | IC50 (neutralization) [4]: 0.038 mg/L | IC50 (neutralization) [5]: > 50 mg/L | IC50 (neutralization) [6]: > 50 mg/L | IC50 (neutralization) [7]: 0.078 mg/L | IC50 [8]: > 50 mg/L | IC50 (neutralization) [9]: > 50 mg/L | IC50 (neutralization) [10]: 14.9 mg/L | IC50 (neutralization) [11]: > 50 mg/L | IC50 (neutralization) [12]: 0.037 mg/L | IC50 [13]: 17.1 mg/L | IC50 [14]: 48.8 mg/L | IC50 (neutralization) [15]: > 50 mg/L | IC50 [16]: 0.018 mg/L | IC50 (neutralization) [17]: > 50 mg/L | IC50 (neutralization) [18]: 0.009 mg/L | IC50 [19]: > 50 mg/L | IC50 (neutralization) [20]: > 50 mg/L | IC50 (neutralization) [21]: > 50 mg/L | IC50 [22]: > 50 mg/L | IC50 [23]: 7.32 mg/L | IC50 (neutralization) [24]: > 50 mg/L | IC50 (neutralization) [25]: > 50 mg/L | IC50 (neutralization) [26]: > 50 mg/L | IC50 [27]: > 50 mg/L | IC50 (neutralization) [28]: 0.009 mg/L | IC50 (neutralization) [29]: 0.023 mg/L | IC50 (neutralization) [30]: > 50 mg/L | IC50 (neutralization) [31]: > 50 mg/L | IC50 (neutralization) [32]: > 50 mg/L | IC50 [33]: 0.875 mg/L | IC50 (neutralization) [34]: > 50 mg/L | IC50 [35]: > 50 mg/L | IC50 (neutralization) [36]: > 50 mg/L | IC50 [37]: > 50 mg/L | IC50 (neutralization) [38]: 0.047 mg/L | IC50 (neutralization) [39]: 0.3 mg/L | IC50 (neutralization) [40]: 0.063 mg/L | IC50 (neutralization) [41]: 0.019 mg/L | IC50 (neutralization) [42]: 43.1 mg/L | IC50 (neutralization) [43]: > 50 mg/L | IC50 (neutralization) [44]: 0.039 mg/L | IC50 (neutralization) [45]: 0.792 mg/L | IC50 [46]: 0.038 mg/L | IC50 [47]: 0.012 mg/L | IC50 (neutralization) [48]: > 50 mg/L | IC50 [49]: 0.009 mg/L | IC50 (neutralization) [50]: > 50 mg/L | IC50 (neutralization) [51]: 0.084 mg/L | IC50 (neutralization) [52]: 0.009 mg/L | IC50 (neutralization) [53]: > 50 mg/L | IC50 (neutralization) [54]: > 50 mg/L | IC50 (neutralization) [55]: 0.046 mg/L | IC50 (neutralization) [56]: 0.03 mg/L | IC50 [57]: > 50 mg/L | IC50 [58]: > 50 mg/L

B2: PGT-127 (antibody, V domains shown)
VH: QPQLQESGPGLVEASETLSLTCTVSGDSTGRCNYFWGWVRQPPGKGLEWIGSLSHCRSYYNTDWTYHNPSLKSRLTISLDTPKNQVFLRLTSVTAADTATYYCARFGGEVLVYRDWPKPAWVDLWGRGTLVVTVS
VL: QSALTQPPSASGSPGQSITISCTGTSNNFVSWYQQYPGKAPKLVIYEVNKRPSGVPDRFSGSKSGSTASLTVSGLQADDEGVYYCSSLVGNWDVIFGGGTKLTVL
IC50 (neutralization) [1]: > 50 mg/L | IC50 (neutralization) [2]: 0.029 mg/L | IC50 (neutralization) [3]: 1.95 mg/L | IC50 (neutralization) [4]: 7.09 mg/L | IC50 (neutralization) [5]: > 50 mg/L | IC50 (neutralization) [6]: > 50 mg/L | IC50 (neutralization) [7]: 7.17 mg/L | IC50 [8]: > 50 mg/L | IC50 (neutralization) [9]: > 50 mg/L | IC50 (neutralization) [10]: 3.59 mg/L | IC50 (neutralization) [11]: > 50 mg/L | IC50 (neutralization) [12]: 1.11 mg/L | IC50 [13]: 19.3 mg/L | IC50 [14]: 7.7 mg/L | IC50 (neutralization) [15]: > 50 mg/L | IC50 [16]: 0.429 mg/L | IC50 (neutralization) [17]: > 50 mg/L | IC50 (neutralization) [18]: 0.021 mg/L | IC50 [19]: > 50 mg/L | IC50 (neutralization) [20]: > 50 mg/L | IC50 (neutralization) [21]: > 50 mg/L | IC50 [22]: > 50 mg/L | IC50 [23]: > 50 mg/L | IC50 (neutralization) [24]: > 50 mg/L | IC50 (neutralization) [25]: > 50 mg/L | IC50 (neutralization) [26]: > 50 mg/L | IC50 [27]: > 50 mg/L | IC50 (neutralization) [28]: 0.015 mg/L | IC50 (neutralization) [29]: 0.015 mg/L | IC50 (neutralization) [30]: > 50 mg/L | IC50 (neutralization) [31]: > 50 mg/L | IC50 (neutralization) [32]: > 50 mg/L | IC50 [33]: > 50 mg/L | IC50 (neutralization) [34]: > 50 mg/L | IC50 [35]: > 50 mg/L | IC50 (neutralization) [36]: > 50 mg/L | IC50 [37]: > 50 mg/L | IC50 (neutralization) [38]: 0.056 mg/L | IC50 (neutralization) [39]: > 50 mg/L | IC50 (neutralization) [40]: 0.068 mg/L | IC50 (neutralization) [41]: 0.09 mg/L | IC50 (neutralization) [42]: > 50 mg/L | IC50 (neutralization) [43]: > 50 mg/L | IC50 (neutralization) [44]: 0.6 mg/L | IC50 (neutralization) [45]: 6.04 mg/L | IC50 [46]: 0.113 mg/L | IC50 [47]: 0.032 mg/L | IC50 (neutralization) [48]: > 50 mg/L | IC50 [49]: 0.009 mg/L | IC50 (neutralization) [50]: > 50 mg/L | IC50 (neutralization) [51]: 2.23 mg/L | IC50 (neutralization) [52]: 0.119 mg/L | IC50 (neutralization) [53]: > 50 mg/L | IC50 (neutralization) [54]: > 50 mg/L | IC50 (neutralization) [55]: 0.067 mg/L | IC50 (neutralization) [56]: 0.393 mg/L | IC50 [57]: > 50 mg/L | IC50 [58]: > 50 mg/L
